From paper PMC10163027, “Coordinated regulation of vegetative phase change by brassinosteroids and the age pathway in Arabidopsis” (Nature Communications, 2023)

B1: GST-BIN2 (enzyme, Arabidopsis, UniProt Q39011 1-380, looked up)
chain: MADDKEMPAAVVDGHDQVTGHIISTTIGGKNGEPKQTISYMAERVVGTGSFGIVFQAKCLETGETVAIKKVLQDRRYKNRELQLMRVMDHPNVVCLKHCFFSTTSKDELFLNLVMEYVPESLYRVLKHYSSANQRMPLVYVKLYMYQIFRGLAYIHNVAGVCHRDLKPQNLLVDPLTHQVKICDFGSAKQLVKGEANISYICSRFYRAPELIFGATEYTTSIDIWSAGCVLAELLLGQPLFPGENAVDQLVEIIKVLGTPTREEIRCMNPHYTDFRFPQIKAHPWHKIFHKRMPPEAIDFASRLLQYSPSLRCTALEACAHPFFDELREPNARLPNGRPFPPLFNFKQEVAGSSPELVNKLIPDHIKRQLGLSFLNQSGT
notes: BIN2, GSK3-like kinase of Arabidopsis; the BIN2 ORF was cloned into pPGH (derived from pGEX4T-2); Printed both as GST-BIN2 and BIN2-GST; a vector derived from pGEX4T-2 would put GST at the N-terminus (surmised); also called BIN2-GST; pPGH-BIN2; source: E. coli Rosetta (DE3), purified (GST resin)

Tests used:
GST-BIN2 = target: B1; assay: pull-down; purified His-tagged protein incubated with resin bound with GST or GST-BIN2 at 4 °C for 4 h; washed five times with PBS-EW; blots with anti-His and anti-GST; conditions: both partners purified
6×His-TOE1 = target: T1, 6×His-TOE1 (Arabidopsis, UniProt Q9SK03 1-449); assay: as above; conditions: both partners purified
T1 construct: TOE1 (AP2-like protein) of Arabidopsis; the TOE1 ORF was cloned into pET-30a (+); Printed both as 6×His-TOE1 and TOE1-His; pET-30a(+) may add further vector residues (surmised); also called TOE1-His; TOE1-HIS; source: E. coli Rosetta (DE3), purified (Ni-NTA)
T1 sequence (Q9SK03 whole entry): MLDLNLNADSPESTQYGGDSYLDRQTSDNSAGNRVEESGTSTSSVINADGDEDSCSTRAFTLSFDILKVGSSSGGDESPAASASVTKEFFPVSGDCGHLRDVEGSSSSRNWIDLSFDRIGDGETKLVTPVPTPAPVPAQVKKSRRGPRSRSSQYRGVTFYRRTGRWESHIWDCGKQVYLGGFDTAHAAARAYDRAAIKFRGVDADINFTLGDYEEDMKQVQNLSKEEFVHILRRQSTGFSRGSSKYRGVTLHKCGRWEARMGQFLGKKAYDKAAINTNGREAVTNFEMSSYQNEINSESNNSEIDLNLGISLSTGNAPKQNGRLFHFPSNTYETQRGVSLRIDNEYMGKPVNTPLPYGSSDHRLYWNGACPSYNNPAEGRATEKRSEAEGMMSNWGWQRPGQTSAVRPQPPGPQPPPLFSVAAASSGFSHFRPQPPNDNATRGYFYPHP

Binder | binding result (GST-BIN2) | binding result (6×His-TOE1)
6×His-SPL9 (natural protein, Arabidopsis, UniProt Q700W2 1-375, looked up, SPL9 of Arabidopsis; the SPL9 ORF was cloned into pET-30a (+); Printed both as 6×His-SPL9 and SPL9-His; pET-30a(+) may add further vector residues (surmised); also called SPL9-His; SPL9-HIS; source: E. coli Rosetta (DE3), purified (Ni-NTA)) MEMGSNSGPGHGPGQAESGGSSTESSSFSGGLMFGQKIYFEDGGGGSGSSSSGGRSNRRVRGGGSGQSGQIPRCQVEGCGMDLTNAKGYYSRHRVCGVHSKTPKVTVAGIEQRFCQQCSRFHQLPEFDLEKRSCRRRLAGHNERRRKPQPASLSVLASRYGRIAPSLYENGDAGMNGSFLGNQEIGWPSSRTLDTRVMRRPVSSPSWQINPMNVFSQGSVGGGGTSFSSPEIMDTKLESYKGIGDSNCALSLLSNPHQPHDNNNNNNNNNNNNNNTWRASSGFGPMTVTMAQPPPAPSQHQYLNPPWVFKDNDNDMSPVLNLGRYTEPDNCQISSGTAMGEFELSDHHHQSRRQYMEDENTRAYDSSSHHTNWSL | binds | –
B1 | – | binds
